Assay results published in patent US20050037969A1 (ARBOR VITA, published 2005).
Ends that are not written are not given here. * marks the point of attachment. Biotin = O=C1N[C@H]2[C@H](CS[C@H]2CCCCC(=O)*)N1

Experiments:
[1] = biological target: T1, GST-PSD95 fusion protein (PDZ domains 1-3) (human, UniProt P31016 56-395 (rat entry)); assay: G assay: biotinylated peptide on plate-bound GST-PDZ fusion, OD 450 nm
T1 construct: also called human post-synaptic density protein 95; not shown: glutathione S-transferase encoded by vector pGEX-3X (Pharmacia)

[2] = biological target: T2, GST-RGS12 PDZ domain fusion protein (human, UniProt O14924 17-85); assay: A/G assays
T2 construct: also called human regulator of G-protein signalling 12; not shown: glutathione S-transferase encoded by vector pGEX-3X (Pharmacia)
T2 sequence: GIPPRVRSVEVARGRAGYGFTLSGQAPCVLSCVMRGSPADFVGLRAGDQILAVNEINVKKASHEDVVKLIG

[3] = biological target: T3, GST-41.8 kD protein (KIAA0751) PDZ domain fusion protein (Mus musculus (Mouse), UniProt Q9EQZ7 682-763); assay: G assay: biotinylated peptide on plate-bound GST-PDZ fusion, OD 450 nm; no GST-alone bar on the sheet
T3 construct: also called 41 kd; hypoth; not shown: glutathione S-transferase encoded by vector pGEX-3X (Pharmacia)
T3 sequence: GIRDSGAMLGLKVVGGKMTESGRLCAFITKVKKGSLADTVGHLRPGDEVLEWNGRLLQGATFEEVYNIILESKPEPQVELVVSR

[4] = biological target: T3, GST-41.8 kD protein (KIAA0751) PDZ …; assay: A/G plate assays, Table 2 matrix
[5] = biological target: T3, GST-41.8 kD protein (KIAA0751) PDZ …; assay: A/G assays
[6] = biological target: T1, GST-PSD95 fusion protein (PDZ domains …); assay: A/G assays
[7] = biological target: T1, GST-PSD95 fusion protein (PDZ domains …); assay: G assay: biotinylated peptide on plate-bound GST-PDZ fusion, streptavidin-HRP, OD 450 nm
[8] = biological target: T4, KIAA0807 (PDZ domain)-GST fusion protein (human, UniProt Q6P0Q8 1104-1192); assay: A/G plate assays, Table 2 matrix
T4 construct: also called K807; KIAA807; not shown: glutathione S-transferase encoded by vector pGEX-3X (Pharmacia)
T4 sequence: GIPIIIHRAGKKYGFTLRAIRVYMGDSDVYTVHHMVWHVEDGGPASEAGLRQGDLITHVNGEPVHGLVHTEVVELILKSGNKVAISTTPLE

[9] = biological target: T1, GST-PSD95 fusion protein (PDZ domains …); assay: A/G plate assays, Table 2 matrix
[10] = biological target: T3, GST-41.8 kD protein (KIAA0751) PDZ …; assay: G assay: biotinylated peptide on plate-bound GST-PDZ fusion, streptavidin-HRP, OD 450 nm

T1 sequence (P31016 other isoform, or with tags, fused parts or gaps): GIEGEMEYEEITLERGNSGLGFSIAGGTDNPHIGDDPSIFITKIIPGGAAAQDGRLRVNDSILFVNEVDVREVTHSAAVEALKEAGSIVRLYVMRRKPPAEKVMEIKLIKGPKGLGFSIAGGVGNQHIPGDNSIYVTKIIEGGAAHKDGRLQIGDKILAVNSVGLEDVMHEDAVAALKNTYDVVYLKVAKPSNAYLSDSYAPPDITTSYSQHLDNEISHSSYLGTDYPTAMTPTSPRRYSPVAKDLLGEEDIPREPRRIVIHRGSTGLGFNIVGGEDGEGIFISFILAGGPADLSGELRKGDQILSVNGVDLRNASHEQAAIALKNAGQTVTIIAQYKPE

Biotin-ARHRVTSYTSSSVNVSSNL [CDW128A (IL8RA) C-terminal peptide AA29.1L, biotinylated]
binding result [1]: no binding
binding result [2]: no binding
binding result [3]: no binding

Biotin-TSGTGHNQTRALRASESGI (also called CD97 (CD55L)) [CD97 C-terminal peptide AA14L, biotinylated]
binding result [1]: no binding
binding result [4]: binds
binding result [2]: no binding

Biotin-SSKSKSSEESQTFFGLYKL (not fully specified, also called FasLigand; Fas ligand) [FasL C-terminal peptide AA23L-M, biotinylated]
binding result [5]: no binding
binding result [6]: no binding
binding result [2]: no binding

B1: CD62E C-terminal peptide AA48L (peptide)
peptide: Biotin-SSSQSLESDGSYQKPSYIL
notes: Only the last four residues are seen in the excerpts
binding result [5]: no binding
binding result [6]: no binding
binding result [2]: no binding

B2: CC CKR-2 C-terminal peptide AA42L (peptide)
peptide: Biotin-GKGKSIGRAPEASLQDKEGA
notes: as for B1
binding result [1]: no binding
binding result [2]: no binding
binding result [3]: no binding

Biotin-VTSPNKHLGLVTPHKTELV [CD83 C-terminal peptide AA47L, biotinylated]
binding result [2]: no binding
binding result [3]: no binding
binding result [7]: binds

Biotin-DLGNMEENKKLEENNHKTEA (also called CD166 (CD6L)) [CD166 C-terminal peptide AA20L, biotinylated]
binding result [1]: no binding
binding result [5]: no binding
binding result [2]: no binding

B3: PAG C-terminal peptide AA58L, biotinylated (peptide)
peptide: Biotin-KENDYESISDLQQGRDITRL
notes: also called Phosphoprotein Associated with GEMs
binding result [8]: binds
binding result [5]: no binding
binding result [6]: no binding
binding result [2]: no binding

Biotin-SVFSIPTLWSPWPPSSSSQL (also called CD3η; CD3-eta) [CD3n C-terminal peptide AA4L, biotinylated]
binding result [9]: binds
binding result [8]: binds
binding result [2]: no binding
binding result [10]: binds

Biotin-HKAEIHAQPSDKERLTSDA (also called CD49F (Aform, alpha6)) [CD49F C-terminal peptide AA12L, biotinylated]
binding result [4]: binds
binding result [6]: no binding
binding result [2]: no binding

Biotin-QATSENGHSARQHVVADTEL [CD34 C-terminal peptide AA7L, biotinylated]
binding result [5]: no binding
binding result [2]: no binding

Biotin-PYGTAMEKAQLKPPATSDA (also called CD49E (alpha-4)) [CD49E C-terminal peptide AA11L, biotinylated]
binding result [1]: no binding
binding result [2]: no binding
binding result [10]: binds

B4: CC CKR-4 C-terminal peptide AA44L (peptide)
peptide: Biotin-DTPSSSYTQSTMDHDLHDAL
notes: as for B1
binding result [1]: no binding
binding result [2]: no binding
binding result [3]: no binding

Biotin-ISKATPALPTVSISSSAEV (also called AA1L-R) [Clasp-1 C-terminal peptide AA1L, biotinylated]
binding result [5]: no binding
binding result [2]: no binding

Biotin-YSATYSELEDPGEMSPPIDL (also called FceRlb; FcεRβI) [FceRIb C-terminal peptide AA25L, biotinylated]
binding result [1]: no binding
binding result [2]: no binding
binding result [3]: no binding

Biotin-KDSRPSFVGSSSGHTSTTL (also called CDW128E (IL8RB)) [CDW128B (IL8RB) C-terminal peptide AA29.2L, biotinylated]
binding result [4]: binds
binding result [9]: binds
binding result [8]: binds

B5: CC CKR-3 C-terminal peptide AA43L (peptide)
peptide: Biotin-LERTSSVSPSTAEPELSIVF
notes: as for B1
binding result [5]: no binding
binding result [6]: no binding
binding result [2]: no binding

Biotin-ENLAPVTTFGKTNGYIA (also called CD148 (DEP-1)) [CD148 C-terminal peptide AA19L, biotinylated]
binding result [5]: no binding
binding result [6]: no binding
binding result [2]: no binding

B6: Mannose receptor C-terminal peptide AA31L (peptide)
peptide: Biotin-GTSDMKDLVGNIEQNEHSVI
notes: as for B1
binding result [5]: no binding
binding result [6]: no binding
binding result [2]: no binding

B7: CC CKR-1R C-terminal peptide AA41L (peptide)
peptide: Biotin-LERVSSTSPSTGEHELSAGF
notes: as for B1
binding result [1]: no binding
binding result [2]: no binding
binding result [3]: no binding

B8: CDw137 (4-1BB ILA) C-terminal peptide AA21L (peptide)
peptide: Biotin-QEEDGCSCRFPEEEEGGCEL
modifications: cysteine pairing not given here
notes: Marked (S), sticky peptide with high background; also called CDw137 (4-1BB ILA) (S)
binding result [5]: no binding
binding result [6]: no binding
binding result [2]: no binding

Biotin-CAISGTSSDRGYGSPRYAEV (also called AA3L-V) [Clasp-4 C-terminal peptide AA3L, biotinylated]
binding result [2]: no binding

Biotin-AWDDSARAAGGQGLHVTAL [LPAP C-terminal peptide AA30L, biotinylated]
binding result [8]: binds
binding result [5]: no binding
binding result [6]: no binding
binding result [2]: no binding

B9: CD5 C-terminal peptide AA49L (peptide)
peptide: Biotin-SMQPDNSSDSDYDLHGAQRL
notes: as for B1
binding result [5]: no binding
binding result [6]: no binding
binding result [2]: no binding

B10: CD114 (G-CSFR) C-terminal peptide AA27L (peptide)
peptide: Biotin-LNFPLLQGIRVHGMEALGSF
notes: as for B1
binding result [5]: no binding
binding result [6]: no binding
binding result [2]: no binding

Biotin-QFMTADETRNLQNVDMKIGV (also called CD44 (long form)) [CD44 C-terminal peptide AA9L, biotinylated]
binding result [5]: no binding
binding result [6]: no binding
binding result [2]: no binding

B11: V-gated Ca2+ channel C-terminal peptide AA46L (peptide)
peptide: Biotin-SSGGRARHSYHHPDQDHWC
notes: Marked (S), sticky peptide with high background; also called V-gated Ca2+ channel (S)
binding result [5]: no binding
binding result [6]: no binding
binding result [2]: no binding

Biotin-SPQPDSTDNDDYDDISAA [CD6 C-terminal peptide AA6L, biotinylated]
binding result [4]: binds
binding result [6]: no binding
binding result [2]: no binding

Biotin-KKGTYLTDETHREVKFTSL [CD46 (Form 1) C-terminal peptide AA10L, biotinylated]
binding result [8]: binds
binding result [5]: no binding
binding result [2]: no binding
binding result [7]: binds
